Results from US20040147432A1 (MERCK, published 2004).
Read-outs that look alike come from different tables or passages of the source. Values belong to the binder of their own block, whether it stands above or below them. Bridges are numbered along the chain shown (N, C = ends). Where no end group is shown, it is not given here. [ ]: non-standard residue; d: D form. Arg(NO2) = N=C(NCCC[C@H](N)C(=O)O)N[N+](=O)[O-]

Assays:
human MCH-1R [1] = molecular target: T1, human MCH-1R (human, UniProt Q99705 1-353); assay: SPA competition with [125I]-human MCH (Phe13, Tyr19) on receptor membranes
T1 construct: also called MCH-R1
T1 sequence (Q99705 whole entry, form in doubt): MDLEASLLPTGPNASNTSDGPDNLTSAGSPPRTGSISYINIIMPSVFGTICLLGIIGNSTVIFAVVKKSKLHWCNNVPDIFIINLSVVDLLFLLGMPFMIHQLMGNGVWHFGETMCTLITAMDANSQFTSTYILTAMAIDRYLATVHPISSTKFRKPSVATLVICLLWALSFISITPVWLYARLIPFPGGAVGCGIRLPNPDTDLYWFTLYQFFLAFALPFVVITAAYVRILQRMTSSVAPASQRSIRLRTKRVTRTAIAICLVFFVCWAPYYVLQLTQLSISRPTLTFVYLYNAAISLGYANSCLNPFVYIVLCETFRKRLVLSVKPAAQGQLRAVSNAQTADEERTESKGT
Experimental: (§1) For the SPA-based assay, WGA-PVT beads (NEN Life Sciences Products) were resuspended in Dulbecco's PBS with calcium and magnesium (500 mg beads in 4 ml PBS). […] The suspension was mixed gently for 20 minutes, 12.3 ml of assay buffer and protease inhibitors were added (final concentration given): 2 μg/ml leupeptin, 10 μM phosphoramidon, 40 μg/ml bacitracin, 5 μg/ml aprotinin, 0.1 mM Pefabloc.
(§2) Coated beads were kept on ice until use. […] Binding reactions were allowed to proceed at room temperature for 3 hours. Quantitation was performed by scintillation counting (TopCount device).

[2] = molecular target: T2, human melanin concentrating hormone type 2 receptor (MCH-2R) (human, UniProt Q969V1 1-340); assay: as above
T2 construct: also called MCH-R2
T2 sequence (Q969V1 whole entry, form in doubt): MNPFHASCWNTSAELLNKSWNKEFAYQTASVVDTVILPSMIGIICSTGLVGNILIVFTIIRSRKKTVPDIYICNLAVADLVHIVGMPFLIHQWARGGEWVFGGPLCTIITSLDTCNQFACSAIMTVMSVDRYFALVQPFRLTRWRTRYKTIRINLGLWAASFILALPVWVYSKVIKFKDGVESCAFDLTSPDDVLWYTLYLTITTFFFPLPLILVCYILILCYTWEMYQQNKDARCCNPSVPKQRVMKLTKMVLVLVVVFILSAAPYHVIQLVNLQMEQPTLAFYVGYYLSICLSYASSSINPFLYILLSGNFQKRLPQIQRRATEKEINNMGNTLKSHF
Experimental: as §1, §2

human MCH-1R [3] = molecular target: T1, human MCH-1R; assay: cell-based or functional assay
human MCH-1R [4] = molecular target: T1, human MCH-1R; assay: SPA competition with [125I]-human MCH (Phe13, Tyr19) on receptor membranes; remark: listed apart in the source
Experimental: as §1, §2

[5] = molecular target: T2, human melanin concentrating hormone …; assay: as above; remark: listed apart in the source
Experimental: as §1, §2

human MCH-1R [6] = molecular target: T1, human MCH-1R; assay: cell-based or functional assay; remark: listed apart in the source
[7] = molecular target: T2, human melanin concentrating hormone …; assay: cell-based or functional assay
human MCH-1R [8] = molecular target: T1, human MCH-1R; assay: cell-based or functional assay; remark: listed apart in the source
[9] = molecular target: T2, human melanin concentrating hormone …; assay: cell-based or functional assay; remark: listed apart in the source
human MCH-1R [10] = molecular target: T1, human MCH-1R; assay: cell-based or functional assay; remark: listed apart in the source
[11] = molecular target: T2, human melanin concentrating hormone …; assay: cell-based or functional assay; remark: listed apart in the source
[12] = molecular target: T2, human melanin concentrating hormone …; assay: SPA competition with [125I]-human MCH (Phe13, Tyr19) on receptor membranes; remark: listed apart in the source
Experimental: as §1, §2

human MCH-1R [13] = molecular target: T1, human MCH-1R; assay: as above; remark: listed apart in the source
Experimental: as §1, §2

IC50 (human MCH-1R [1]): 0.5 nM | IC50 [2]: 2 nM | Activation % at 10 µM (aequorin functional assay) (human MCH-1R [3]): 99% | EC50 (aequorin functional assay) (human MCH-1R [3]): 20 nM | IC50 (human MCH-1R [4]): 1.4 nM | IC50 [5]: 2 nM | Activation % at 10 µM (aequorin functional assay) (human MCH-1R [6]): 99% | EC50 (aequorin functional assay) (human MCH-1R [6]): 20 nM
B1: truncated form of human MCH, SEQ. ID. NO. 2 (peptide)
peptide: Ac-RCMLGRVYRPC-NH2
modifications: disulfide 2-11 (inferred)
notes: positions numbered 6-16 as in hMCH

IC50 [5]: 490 nM | Activation % at 10 µM (aequorin functional assay) [7]: 34% | EC50 (aequorin functional assay) [7]: 260 nM | Activation % at 10 µM (aequorin functional assay) (human MCH-1R [8]): 0.1% | EC50 (aequorin functional assay) (human MCH-1R [8]): > 10000 nM
B2: SEQ. ID. NO. 37 (peptide)
peptide: Ac-RCML[dA][Arg(NO2)]VYRPC-NH2
modifications: disulfide 2-11 (inferred)
notes: also called D-Ala^10, Arg(NO2)^11

Activation % at 10 µM (aequorin functional assay) (human MCH-1R [3]): 49% | Activation % at 10 µM (aequorin functional assay) [9]: 103%
B3: SEQ. ID. NO. 40 (peptide)
peptide: XCMLGRVYRPC
modifications: not fully specified; (?NH2)-Arg at position 6

IC50 [2]: 0.5 nM | Activation % at 10 µM (aequorin functional assay) (human MCH-1R [10]): 100% | Activation % at 10 µM (aequorin functional assay) [11]: 100% | EC50 (aequorin functional assay) [11]: 44.7 nM | Activation % at 10 µM (aequorin functional assay) (human MCH-1R [3]): 100% | Activation % at 10 µM (aequorin functional assay) [9]: 100% | EC50 (aequorin functional assay) [9]: 30.7 nM | IC50 [5]: 0.5 nM | IC50 [12]: 0.9 nM | Activation % at 10 µM (aequorin functional assay) (human MCH-1R [6]): 100% | Activation % at 10 µM (aequorin functional assay) [7]: 100% | EC50 (aequorin functional assay) [7]: 30.7 nM
B4: human MCH (melanin-concentrating hormone), SEQ. ID. NO. 1 (ligand)
peptide: DFDMLRCMLGRVYRPCWQV
modifications: disulfide 7-16 (inferred)
notes: cyclic 19-amino acid peptide; also called hMCH; mammalian MCH

Activation % at 10 µM (aequorin functional assay) (human MCH-1R [10]): 100% | EC50 (aequorin functional assay) (human MCH-1R [10]): 17.4 nM | Activation % at 10 µM (aequorin functional assay) [11]: 99% | EC50 (aequorin functional assay) [11]: 58.9 nM | IC50 (human MCH-1R [13]): 0.4 nM | IC50 [12]: 8.7 nM
B5: SEQ. ID. NO. 56 (peptide)
peptide: DFDMLRCMLGRVYRPCWQA
modifications: disulfide 7-16
notes: also called Ala^19

Activation % at 10 µM (aequorin functional assay) (human MCH-1R [10]): 97% | EC50 (aequorin functional assay) (human MCH-1R [10]): 40 nM | Activation % at 10 µM (aequorin functional assay) [11]: 92% | EC50 (aequorin functional assay) [11]: 1.5 nM | IC50 (human MCH-1R [13]): 0.6 nM | IC50 [12]: 0.07 nM
B6: SEQ. ID. NO. 57 (peptide)
peptide: DFDMLRCMLGRVFRPCYQV
modifications: disulfide 7-16
notes: label prints Tyr^17 while the radioligand is Phe^13, Tyr^19; also called Phe^13, Tyr^17
